Measurements reported in the supplement of paper PMC10126150.
± gives the standard deviation of the averaged measurements.

What follows are sequences tested on ATP (assay: switch fluorescence ratio, 500 uM ATP over buffer (Cy3 cluster intensity, sum of 5 cycles each) (fold (ratio)); higher = stronger signal-on switching upon ATP binding; sequences stand for … in TCGTCGGCAGCGTCAGATGTGTATAAGAGACAGTTTTTTTTTTTTTTTTTTTTTTTTT…TC). Settings: aptamer strand: ATP DNA aptamer (quencher-CACCTGGGGGAGTATTGCGGAGGAAGG + anchor), 100 nM annealed; ATP concentration: 500 uM.
Method in brief: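 Values give the fluorescence ratio for each switch-domain sequence, averaged from per-cluster ratios of summed target-cycle to summed buffer-cycle Cy3 intensity. The Cy3-labelled switching-strand clusters sat on a modified Illumina MiSeq flow-cell, were annealed to 100 nM quencher-labelled ATP aptamer, and were imaged in selection buffer, then after 15 min with 500 uM ATP at 22 °C. Five cycles ran with NaOH stripping and re-annealing between them, and clusters outside 100-1000 RFU were excluded.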
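Note: ATP exposure 15 min at 22 °C before imaging.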

Sequence	switch fluorescence ratio
CCTGTTTTTA	0.986 ± 0.024
TGTCGGTAAT	1.03 ± 0.022
CGCTGAGCAC	1.18 ± 0.059
ACTAGAAATG	0.984 ± 0.017
TTGTAGCTGT	1.12 ± 0.13
TGGTGGGTAC	1.03 ± 0.084
GGATGTGAAG	0.9818 ± 0.0027
TACACTGGCG	1.05 ± 0.057
TTAGGGGGTA	1.12 ± 0.27
TTAAAAGTGG	1.01 ± 0.022
TATTGGAACG	0.99979 ± 0.0003
GGAGTGAGGG	0.985 ± 0.05
CCTCATTGAC	2.24 ± 0.15
AAACTTGGGT	1.04 ± 0.024
TAGTTCTGAG	0.998 ± 0.006
TCTAATACAG	1.03 ± 0.032
TATATTGGAT	0.985 ± 0.025
GCGTTAACGG	1.02 ± 0.011
TAAGCTCTCG	0.9915 ± 0.0027
AAAAATCGT	1.01 ± 0.014
TCACTATAGG	1.02 ± 0.036
GGCTGGTATA	0.987 ± 0.031
GCCAGAGAGG	1.005 ± 0.0091

Sequence	switch fluorescence ratio
CCACTTACGG	1.6327 ± 0.00046
GATAGGAGCC	0.9977 ± 0.002
GATGGATAAG	1.009 ± 0.0024
AGTTTTATCA	0.97 ± 0.015
TTCGGTGGAG	0.96 ± 0.081
ATGTACGGAT	1.02 ± 0.059
TCTGGGCTTT	1.07 ± 0.1
TTGGGAACTA	1.01 ± 0.02
AAAGGTAATA	1 ± 0.025
AGGGTCAGCT	1.02 ± 0.014
TTGAAGGGGG	0.993 ± 0.035
ATTTGGGCCT	1.02 ± 0.032
AATAGTTTCA	1.01 ± 0.014
GTCAATTAGG	0.997 ± 0.024
CGTGTGGTTT	1.03 ± 0.037
GGGACGAGGG	1.03 ± 0.035
ATTGTAACAA	1.037 ± 0.0089
ACCCAGGTA	2.1 ± 0.29
ATTACCTATA	1.05 ± 0.044
GCGCTTGTTG	0.998 ± 0.013
CCCTTTTTAT	0.986 ± 0.014
GAGCTTGGGG	0.991 ± 0.028
TGGTGGCTTT	0.996 ± 0.015

Sequence	switch fluorescence ratio
AGATCGAGTA	0.989 ± 0.033
GCGGGGTCAG	0.989 ± 0.025
TGGGGGACCT	1.09 ± 0.1
TTGGGGAGAA	0.98 ± 0.035
ATAGGGGAAG	1.01 ± 0.033
GGATGGCATG	0.979 ± 0.039
ACTGGCTCCT	1.02 ± 0.056
CTTACTGCAT	1.27 ± 0.068
AGGTAACTGG	1.001 ± 0.00096
GGGTTATGAG	0.977 ± 0.06
TATGCTAACT	1 ± 0.051
CAATTTCTGG	0.973 ± 0.015
TAATGCTGTG	0.984 ± 0.036
AACGGTCAAA	1.02 ± 0.028
CGAAACCGAC	2.17 ± 1.2
ACAATCTTTA	0.994 ± 0.03
AGTGTCGCTG	1.008 ± 0.0012
GCGCAGAACG	1.07 ± 0.015
TTTTCGTAAT	2.26 ± 1.9
CAGGGAAAAG	0.991 ± 0.032
TAGATTTGTA	1.01 ± 0.021
TTCAAGCGCT	0.967 ± 0.019
TTAGAACTGA	1.02 ± 0.023

Sequence	switch fluorescence ratio
GTTGTAGCTC	1 ± 0.023
GGTATCTGTT	0.986 ± 0.016
GTTGGACTGG	1.01 ± 0.037
GGGGCGAAGG	0.999 ± 0.038
TGCTAGGGGC	1.07 ± 0.036
GCGAGACCAG	1.64 ± 0.051
AAGTGGAATG	1.02 ± 0.03
CAATCTGATA	0.99 ± 0.016
TCGGCGGGGT	1.75 ± 1.3
AAAGTGTGC	1.07 ± 0.03
TTAACGGGGG	0.984 ± 0.043
AGTGTGTGGG	1.02 ± 0.03
TTACAATCAA	0.999 ± 0.047
TTGTACTATC	1.01 ± 0.063
AAAGTCTACA	1.03 ± 0.024
TGTTGGTGGC	1.02 ± 0.071
GTTGGAGCAT	1.086 ± 0.0023
TTATTAGGGC	1 ± 0.083
ACAGGACAGG	1.14 ± 0.014
TGCGATTTAC	1.15 ± 0.024
AAAAGCCGGT	1.02 ± 0.034
GGGTTCAAAC	1 ± 0.039
AGTCTGTGCT	0.97353 ± 0.00097

Sequence	switch fluorescence ratio
TATGTTTATC	0.975 ± 0.055
TGGCAGGTTT	1.015 ± 0.01
CTGCCCGCCC	1.3 ± 0.12
TGTTTCTAAT	0.999 ± 0.02
AGAGGGTCCA	0.962 ± 0.021
TATTTGAAGT	0.9885 ± 0.0028
GCACTGGTAT	1.05 ± 0.024
GGGAAAATTC	1.06 ± 0.089
TTGGTTTACT	1.22 ± 0.3
TGGGGCTACA	0.983 ± 0.056
CGAATTTTAT	0.976 ± 0.039
AGGGCTGGAT	1.06 ± 0.12
AGTTGGTCGG	0.975 ± 0.031
CGTAGCTAGA	1.89 ± 0.047
AGATGGGGAG	1.04 ± 0.064
AGGGCTTTCC	1.075 ± 0.007
AGATTAGTTC	1.002 ± 0.0056
TTTGATGAGC	1.01 ± 0.034
GTTCGGGGTA	0.995 ± 0.031
GGGCGCGGGG	1.01 ± 0.023
TCTTTTCCCT	1.02 ± 0.086
GGGCTTGCAG	0.9812 ± 0.0089
TTTCGTGGGG	0.992 ± 0.056

Sequence	switch fluorescence ratio
CCGCGGGGAG	1.1 ± 0.041
CGGGGTTCGC	1.95 ± 1.3
AGAATGTGC	0.9956 ± 0.0047
CCTAGTTCGG	0.997 ± 0.027
CGGGCAGCGT	0.986 ± 0.0076
TTTAAGGAAC	1.03 ± 0.026
ATTATAAAAG	0.989 ± 0.012
AGAAACAAGG	0.979 ± 0.027
ATGGGGGCGG	1 ± 0.021
ACGGTGTAGG	1.11 ± 0.12
GTCTTGGTTC	0.9721 ± 0.0084
GCACTCGGTG	1.01 ± 0.048
ATATCACGCT	1.03 ± 0.023
CAAAAAGGAG	0.994 ± 0.019
TTTGGGTCGG	0.993 ± 0.018
TTTTAGAGCT	1.02 ± 0.018
AGGGGGTCGT	0.98 ± 0.017
ATTAATAGTG	0.967 ± 0.028
TTATATACCA	1.03 ± 0.079
TTTATCTGTG	0.954 ± 0.019
GCCTCTGGTC	0.992 ± 0.028
ATGAGATTCG	0.99 ± 0.026
CGGTGGACTG	1.07 ± 0.014

Sequence	switch fluorescence ratio
AGTTACCA	1.054 ± 0.0038
ATAGCAAAAT	1.07 ± 0.13
TGGTGAAACC	1.013 ± 0.0035
GGAGGGGAGC	0.974 ± 0.056
GGCAGGGGTG	1.11 ± 0.015
TCGGACTGAG	0.968 ± 0.029
GGTATGAGTG	0.9737 ± 0.006
GGGGAAGACG	1.01 ± 0.082
GGTTGTAAGG	1.01 ± 0.033
CAGGGGTTAT	1.01 ± 0.015
AAAGGGGTCA	1 ± 0.034
TAGAACCTCG	1.02 ± 0.057
ACACTTTTTT	1 ± 0.055
TTTGGCAATT	1.73 ± 0.57
GTGGGTCATA	0.953 ± 0.099
TTTGGGTGGT	1.09 ± 0.21
GTGTTAACCT	1.25 ± 0.045
CGGGTTGGTT	1.032 ± 0.0056
TGGTTTGTTG	0.9686 ± 0.0064
